Data reported in IntAct's records for PubMed 28497574.

B1: Methylmalonic aciduria type A protein, mitochondrial (Homo sapiens), Q8IVH4 (parent)
chain: MPMLLPHPHQHFLKGLLRAPFRCYHFIFHSSTHLGSGIPCAQPFNSLGLHCTKWMLLSDGLKRKLCVQTTLKDHTEGLSDKEQRFVDKLYTGLIQGQRACLAEAITLVESTHSRKKELAQVLLQKVLLYHREQEQSNKGKPLAFRVGLSGPPGAGKSTFIEYFGKMLTERGHKLSVLAVDPSSCTSGGSLLGDKTRMTELSRDMNAYIRPSPTRGTLGGVTRTTNEAILLCEGAGYDIILIETVGVGQSEFAVADMVDMFVLLLPPAGGDELQGIKRGIIEMADLVAVTKSDGDLIVPARRIQAEYVSALKLLRKRSQVWKPKVIRISARSGEGISEMWDKMKDFQDLMLASGELTAKRRKQQKVWMWNLIQESVLEHFRTHPTVREQIPLLEQKVLIGALSPGLAADFLLKAFKSRD
partner: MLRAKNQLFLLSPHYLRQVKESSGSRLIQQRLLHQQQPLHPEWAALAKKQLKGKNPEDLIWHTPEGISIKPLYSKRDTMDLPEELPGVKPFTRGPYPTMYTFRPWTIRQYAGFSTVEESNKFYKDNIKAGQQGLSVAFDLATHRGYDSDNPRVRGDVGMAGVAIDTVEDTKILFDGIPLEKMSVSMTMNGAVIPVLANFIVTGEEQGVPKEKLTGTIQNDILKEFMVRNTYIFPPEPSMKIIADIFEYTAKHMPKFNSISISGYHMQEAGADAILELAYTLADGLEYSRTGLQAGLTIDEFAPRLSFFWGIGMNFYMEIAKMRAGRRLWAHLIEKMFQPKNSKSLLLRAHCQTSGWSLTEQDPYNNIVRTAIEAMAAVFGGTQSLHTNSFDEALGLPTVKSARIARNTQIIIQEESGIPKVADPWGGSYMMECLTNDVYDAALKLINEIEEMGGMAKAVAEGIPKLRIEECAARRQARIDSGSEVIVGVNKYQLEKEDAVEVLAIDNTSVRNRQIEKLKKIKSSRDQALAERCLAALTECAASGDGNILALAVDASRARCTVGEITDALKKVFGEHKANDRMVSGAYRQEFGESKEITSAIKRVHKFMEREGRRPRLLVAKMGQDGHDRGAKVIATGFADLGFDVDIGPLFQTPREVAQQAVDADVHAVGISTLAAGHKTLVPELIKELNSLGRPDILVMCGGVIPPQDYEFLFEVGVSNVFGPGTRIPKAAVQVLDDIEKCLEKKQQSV

Variants of: B1
Conditions: with muta_human MMUT

effect of a mutation on the interaction | Variant
decreasing interaction strength | G274S
decreasing interaction strength | K276E
disrupting interaction strength | G218E
decreasing interaction strength | E250K
disrupting interaction strength | G147E
with no effect | R196Q
disrupting interaction strength | V220M
disrupting interaction strength | Y207C
disrupting interaction strength | R209S
decreasing interaction strength | R359G
disrupting interaction strength | D292V
disrupting interaction strength | R98G
disrupting interaction strength | G188R
decreasing interaction strength | G192D

Variants of: B1
Conditions: with muta_human MMUT
Remark: another data set of the same source

effect of a mutation on the interaction | Variant
disrupting interaction strength | T243N
